In PMC11401214, “A new generation of nanobody research tools using improved mass spectrometry-based discovery methods” (The Journal of Biological Chemistry, 2024):
Substitutions are numbered along the chain they refer to. Blank lines part the entries; values can stand above or below the binder they belong to.

Assays:
Test in all cases: SPR; Biacore 8K; antigen immobilised on CM5 chip by amine coupling at 1 ug/ml (tdTomato) or 5 ug/ml (GST, IgGs) in 10 mM sodium acetate pH 5.5; nanobody injected in single-cycle kinetics at 0.1-10 nM; 20 mM Na-Hepes pH 7.4, 150 mM NaCl, 0.05% Tween 20; Langmuir 1:1 model, RIgG-1 and GIgG-4 fit to a two-step binding model
[1] = biological target: tdTomato; parameters: kon of step 1 (2-state binding model) / koff of step 1 (2-state binding model) / koff of step 2 (2-state binding model): unit not given here
[2] = biological target: T1, GST (Schistosoma japonicum (assumed, …, UniProt P08515 = GST)); conditions: both partners purified
T1 construct: GST (glutathione S-transferase), the expression fusion protein tag; the methods describe only the production of GST-TEV protease; the 'GST' immobilised for SPR may be that fusion

[3] = biological target: mouse IgG (mouse); parameters: kon of step 1 (2-state binding model) / koff of step 1 (2-state binding model) / koff of step 2 (2-state binding model): unit not given here
[4] = biological target: rabbit IgG (rabbit); parameters: kon of step 1 (2-state binding model) / koff of step 1 (2-state binding model) / koff of step 2 (2-state binding model): unit not given here
[5] = biological target: goat IgG (goat); parameters: kon of step 1 (2-state binding model) / koff of step 1 (2-state binding model) / koff of step 2 (2-state binding model): unit not given here

T1 sequence (P08515 whole entry, looked up, the tested form may be a part): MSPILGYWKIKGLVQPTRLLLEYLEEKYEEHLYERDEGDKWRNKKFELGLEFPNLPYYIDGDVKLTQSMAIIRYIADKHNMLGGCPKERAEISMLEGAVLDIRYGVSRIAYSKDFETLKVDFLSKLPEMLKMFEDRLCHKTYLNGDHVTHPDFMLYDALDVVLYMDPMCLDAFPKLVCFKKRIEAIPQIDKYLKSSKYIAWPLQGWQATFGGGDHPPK

- Kd [1]: 0.057 nM
B1: LaTdT-38 (VHH)
VHH: QVQLVESGGGLVQAGGSLRLSCAASGRSFSGNNMGWFRQVSGTEREFVAAISWSGLITEYSGAVKGRFTISRDNAKNTLYLQMNSLKPEDTAVYSCAADGRDVQLPGRSEYDYNYWGQGTQVTVS

- Kd [4]: 0.053 nM
B6: LaRIgG-7 (VHH)
VHH: DVQLVESGGGLVQTGGSLRLSCAASGRTFTTYDLAWFRQAPGKERECVAAVSRIGTTYYPDSVKGRFTISTDTAQNTVYLQMNSLKPEDTAVYYCASAKFGSRWIRAKTSEGNYDDWGRGTQVTVS

- Kd [1]: < 0.018 nM
B10: LaTdT-1 (VHH)
VHH: DVQLVESGGGLVPAGGSLRLSCAASTSDLFSRYTMGWFRQAPGKEREFVSAITGMSSMTKYADSVKGRFTVSRDNRKATMYLQMDSLKPEDTAVYYCAAHTTTAAATPQSMGLMLKYDHWGQGTEVTVS

- Kd [1]: 0.052 nM
B11: LaTdT-10 (VHH)
VHH: DVQLVESGGRLVQDGGSLRLSCEVSGGTFDTFAMGWFRQAPGKEREFVSAITWSGGNTYYGDSVKGRFTISRNNVKRTVYLQMISLKPEDTGVYYCAADPYGSSWSPLQKEGQYDYWGQGTQVTVS

- Kd [1]: 0.044 nM
B12: LaTdT-44 (VHH)
VHH: B11 VHH with D1Q

- Kd [1]: 0.0059 nM
B13: LaTdT-39 (VHH)
VHH: QVQLVESGGGLVQAGESLQLSCAASGGTLRDAIVGWFRQARGKEREFLASITWSGLSTNYSDSVKGRFVISRANPQNTAYLQMNSLKPEDTAIYYCAAKIGAFGLADEFRTVPQYDSWGQGTQVTVS

- Kd [1]: 0.084 nM
B17: LaTdT-9 (VHH)
VHH: QVQLVESGGGLVQPGDSLMLSCVISGHTFTNFRMGWFRQAPGKEREFVAGITWLFGRTDYADSVQGRFTISRDKGKDTMYLQMDSLKPEDTGVYTCAVQSGVLAYPMREGFYDIWGQGTHVTVS

- Kd [1]: 0.037 nM
B24: LaTdT-8 (VHH)
VHH: QVQLVESGGGLVQAGDSLRLSCADAGLPYAFNHYGMAWFRQAPGKEREFVAGTSGGMTYYGDSVPDRFSFSRDNDKKTVHLHINSLKPEDTAVYYCAARLGGRYEDASDYDVWGQGTQVTVS

- Kd [1]: 0.0035 nM
B25: LaTdT-2 (VHH)
VHH: DVQLVESGGGLVQAGDSLRLSCAFSGSAFDTYAMGWFRQAPGKEREFVSAITWSGGNTYYADSAKGRFTISRDDAKNTVYLQMNSLKPEDAATYYCAANRYGSSWSPLTKMGQYEHWGQGTQVTVS

- Kd [1]: 0.028 nM
B26: LaTdT-45 (VHH)
VHH: B25 VHH with D1Q

More lines, now with the values behind:

B2: GST-6 (VHH)
VHH: QVQLVESGGGLVQPGESLRLSCAASGFTFSSHRMNWLRQAPGKGLEWVSTTSTGGGSAATYYVNSVKGRFTVSRDDAKNMLYLQMNSLKPEDTARYYCAIPESPGRPFGSTWSEYRYWGQGTQVTVS
notes: anti-GST nanobody; source: ArcticExpress (DE3) cells, purified from periplasm
- Kd [2]: 0.15 nM

B3: LaMIgG-9 (VHH)
VHH: QVQLVESGGGLVQAGGSLSLSCATSGRTGDLYAMAWFRQAPGAEREFVATVTAIGGATYYADSVKGRFTISASYARNMVYLQMNSLKPEDSAVYYCAASMKRVWPLHRSDEAEYWGQGTQVTVS
- Kd [3]: 0.6 nM

B4: GST-3 (VHH)
VHH: QVQLVESGGGLVQPGGSLRLSCADSGRIFSDYTMAWFRQPPGKEREFVASINRSGLGTYYADSVKGRFTVTRDNAKNMVYLQMNSLTVEDTAVYYCGARWGGSYIDPREGMYDFRGQGTQVTVS
notes: as for B2
- Kd [2]: 0.35 nM

B5: LaMIgG-5 (VHH)
VHH: DVQLVESGGGSVQAGGSLRLSCAASGFIFSKDVMNWFRQAPGKERELVAFINPSGTTHYVDSVKGRFTISRDNVKSTVYLQMNDLKPDDTAVYYCQTRKFVGTTWRDYWGQGTQVTVS
- Kd [3]: 0.42 nM

B7: LaMIgG-8 (VHH)
VHH: QVQLVESGGGLVQAGGSLKLSCATSGFTFSTSVMNWFRQAPGKERDMVAFINPSGSTNYVDSVKGRFTISRDSTKNTVYLQMNSLKPEDTAVYYCQTRLLVDSGWRDYWGQGTQVTVS
- Kd [3]: 1.2 nM

B8: LaMIgG-14 (VHH)
VHH: B7 VHH with K19R, T24A, D46E, N58H, T74A, M82L, L100F, D102G, S103A
- Kd [3]: 0.21 nM

B9: GST-8 (VHH)
VHH: QVQLVESGGDLVQAGGSLRLSCAASGSISAAYDMGWFRQVPGKQRELVASLGSGGFSAYADSVKGRFTVSRDNAKNTVYLQMNSLKPEDTGVYYCAARTPFDIWTTGRWGEYDYWGQGTQVTVS
notes: as for B2
- Kd [2]: 0.13 nM

B14: LaGIgG-4 (VHH)
VHH: DVQLVESGGGLVQAGGSLRLSCAASGITFSRSTMGWHRQAPGKRRELVASINAVGSTNYVPSVKGRFTISRDNAKNTVTLQMNSLEPEDTGVYYCVSDPYDDPRRYWGPGTQVTVS
- Kd [5]: 0.82 nM
- koff of step 1 (2-state binding model) [5]: 0.011
- koff of step 2 (2-state binding model) [5]: 0.00033
- kon of step 1 (2-state binding model) [5]: 2.2e+06
- kon of step 2 (2-state binding model) [5]: 0.0018 s⁻¹

B15: LaRIgG-2 (VHH)
VHH: QVQLVESGGGLVQAGGSLRLSCVASGGTFSDWPKGWFRQAPGKEREFVAAINWNGSGTTYADSVKGRFTISRDNAKNAVYLEMNSLKPEDTAVYSCASTFGGIRSVGTNDYWGRGTQVTVS
- Kd [4]: < 0.014 nM

B16: LaGIgG-12 (VHH)
VHH: QVQLVESGGGLVQAGGSLRLSCSASGRTLSTYAMGWFRQAPGKEREFVAVISRSGGSTHYVESVKGRFTIVRDNAKNTVYLQMDSLKPEDTAVYYCAVPKYTDYALSPEDFGSWGQGTQVTVS
- Kd [5]: 0.49 nM

B18: GST-7 (VHH)
VHH: QVTLVESGGGLVQAGGSLGLSCTASGHTFNPYAMAWFRQAPGKEREFVAAIGWRVGTTYYTDSVKGRFTISADNAKNTAYLQMNSLKPEDTAVYYCAAGFGRSPSNYDYWGQGTQVTVS
notes: as for B2
- Kd [2]: 0.17 nM

B19: GST-5 (VHH)
VHH: QVQLVESGGGLVQAGGSLRLSCVVTGRAFGAYAMGWFRQSPGKEREFVAAITWNGGTTNYADSVKGRFAISRDNPPNTVYLQMNSLKPEDTAVYYCAKYPNNFWHNEAPDSWGRGTQVTVS
notes: as for B2
- Kd [2]: 0.13 nM

B20: GST-1 (VHH)
VHH: QVQLVESGGGLVQAGGSLRLSCVCVGRAFGVYAMGWFRQSPGKEREFVAAITWNGGSIDYADSVKGRFAISRDNPPNTVYLQMNSLKPEDTAVYYCAKYRNNYYNEAPNSWGQGTQVTVS
notes: as for B2
- Kd [2]: 0.085 nM

B21: GST-4 (VHH)
VHH: B20 VHH
notes: as for B2
- Kd [2]: 0.26 nM

B22: GST-2 (VHH)
VHH: B20 VHH with C24V, V31A, D59T, Q82E, R100T, N109K
notes: as for B2
- Kd [2]: 0.064 nM

B23: LaRIgG-1 (VHH)
VHH: QVQLAESGGGLVQPGGSLRLSCVVSGGTFGRYDMGWFRQAPGKEREFVAAISREVTTNYGDSVRGRFTISRDNAENTVHLLMNSLKPEDTAVYYCAADDAHRYSGTYYLSQDFRYTYWGQGTQVTVS
- Kd [4]: 0.36 nM
- koff of step 1 (2-state binding model) [4]: 0.0034
- koff of step 2 (2-state binding model) [4]: 0.00026
- kon of step 1 (2-state binding model) [4]: 890000
- kon of step 2 (2-state binding model) [4]: 0.0026 s⁻¹
